From paper PMC5148919, “Enhanced production of 2,3-butanediol by engineered Saccharomyces cerevisiae through fine-tuning of pyruvate decarboxylase and NADH oxidase activities” (Biotechnology for Biofuels, 2016) come the findings set out here.

The term Km denotes the concentration of substrate that gives half-maximal velocity.

The test system of one data set is T1, CtPdc1.
T1 construct: gene PDC1; full-length ORF from genomic DNA, TDH3 promoter multi-copy plasmid in Pdc-deficient S. cerevisiae SOS5; no tag mentioned; ORF ends NAAQE by primer
Briefly: coupled ADH/NADH assay at […] nm, crude extract, Lineweaver-Burk. It counts as cell-based, Candida viswanathii (printed as Candida tropicalis). The conditions noted are these: pH 6.5 imidazole, 30 °C, 5 mM MgCl2, 0.2 mM TPP, 0.4 mM NADH; pyruvate 1.56-100 mM.

Substrate in data set [1]: CC(=O)C(=O)O
In words: cells, lysate or membranes. Type of data set: cell-based, Saccharomyces cerevisiae. The conditions noted are these: pH 6.5 imidazole, 30 °C, 5 mM MgCl2, 0.2 mM TPP, 0.4 mM NADH, pyruvate 1.56-100 mM.

Substrate in data set [2]: CC(=O)C(=O)O
Briefly: cells, lysate or membranes. Type of data set: cell-based, Kluyveromyces marxianus. The conditions noted are these: pH 6.5 imidazole, 30 °C, 5 mM MgCl2, 0.2 mM TPP, 0.4 mM NADH, pyruvate 1.56-100 mM.

In the case of `CC(=O)C(=O)O` [pyruvate], the Michaelis-Menten constant (Km) in the data set on CtPdc1 was found to be 2.7 mM.

B1: ScPdc1 (Saccharomyces cerevisiae S288C) (protein)
chain: SEITLGKYLFERLKQVNVNTVFGLPGDFNLSLLDKIYEVEGMRWAGNANELNAAYAADGYARIKGMSCIITTFGVGELSALNGIAGSYAEHVGVLHVVGVPSISAQAKQLLLHHTLGNGDFTVFHRMSANISETTAMITDIATAPAEIDRCIRTTYVTQRPVYLGLPANLVDLNVPAKLLQTPIDMSLKPNDAESEKEVIDTILALVKDAKNPVILADACCSRHDVKAETKKLIDLTQFPAFVTPMGKGSIDEQHPRYGGVYVGTLSKPEVKEAVESADLILSVGALLSDFNTGSFSYSYKTKNIVEFHSDHMKIRNATFPGVQMKFVLQKLLTTIADAAKGYKPVAVPARTPANAAVPASTPLKQEWMWNQLGNFLQEGDVVIAETGTSAFGINQTTFPNNTYGISQVLWGSIGFTTGATLGAAFAAEEIDPKKRVILFIGDGSLQLTVQEISTMIRWGLKPYLFVLNNDGYTIEKLIHGPKAQYNEIQGWDHLSLLPTFGAKDYETHRVATTGEWDKLTQDKSFNDNSKIRMIEIMLPVFDAPQNLVEQAKLTAATNAKQ
notes: full-length ORF from genomic DNA, TDH3 promoter multi-copy plasmid in Pdc-deficient S. cerevisiae SOS5; no tag mentioned
As to B1, the Michaelis-Menten constant (Km) in data set [1] is listed as 4.7 mM.

B2: Pdc5 (Saccharomyces cerevisiae S288C) (protein)
chain: MSEITLGKYLFERLSQVNCNTVFGLPGDFNLSLLDKLYEVKGMRWAGNANELNAAYAADGYARIKGMSCIITTFGVGELSALNGIAGSYAEHVGVLHVVGVPSISSQAKQLLLHHTLGNGDFTVFHRMSANISETTAMITDIANAPAEIDRCIRTTYTTQRPVYLGLPANLVDLNVPAKLLETPIDLSLKPNDAEAEAEVVRTVVELIKDAKNPVILADACASRHDVKAETKKLMDLTQFPVYVTPMGKGAIDEQHPRYGGVYVGTLSRPEVKKAVESADLILSIGALLSDFNTGSFSYSYKTKNIVEFHSDHIKIRNATFPGVQMKFALQKLLDAIPEVVKDYKPVAVPARVPITKSTPANTPMKQEWMWNHLGNFLREGDIVIAETGTSAFGINQTTFPTDVYAIVQVLWGSIGFTVGALLGATMAAEELDPKKRVILFIGDGSLQLTVQEISTMIRWGLKPYIFVLNNNGYTIEKLIHGPHAEYNEIQGWDHLALLPTFGARNYETHRVATTGEWEKLTQDKDFQDNSKIRMIEVMLPVFDAPQNLVKQAQLTAATNAKQ
notes: as for B1
Consider B2, for which the Km in data set [1] was 9.9 mM.

B3: Pdc6 (Saccharomyces cerevisiae S288C) (protein)
chain: SEITLGKYLFERLKQVNVNTIFGLPGDFNLSLLDKIYEVDGLRWAGNANELNAAYAADGYARIKGLSVLVTTFGVGELSALNGIAGSYAEHVGVLHVVGVPSISAQAKQLLLHHTLGNGDFTVFHRMSANISETTSMITDIATAPSEIDRLIRTTFITQRPSYLGLPANLVDLKVPGSLLEKPIDLSLKPNDPEAEKEVIDTVLELIQNSKNPVILSDACASRHNVKKETQKLIDLTQFPAFVTPLGKGSIDEQHPRYGGVYVGTLSKQDVKQAVESADLILSVGALLSDFNTGSFSYSYKTKNVVEFHSDYVKVKNATFLGVQMKFALQNLLKVIPDVVKGYKSVPVPTKTPANKGVPASTPLKQEWLWNELSKFLQEGDVIISETGTSAFGINQTIFPKDAYGISQVLWGSIGFTTGATLGAAFAAEEIDPNKRVILFIGDGSLQLTVQEISTMIRWGLKPYLFVLNNDGYTIEKLIHGPHAEYNEIQTWDHLALLPAFGAKKYENHKIATTGEWDALTTDSEFQKNSVIRLIELKLPVFDAPESLIKQAQLTAATNAKQ
notes: as for B1
Consider B3, for which the Michaelis constant (Km) in data set [1] amounted to 8.2 mM.

B4: K. marxianus Pdc1 (Kluyveromyces marxianus) (protein)
chain: MSEITLGRYLFERLKQVEVQTIFGLPGDFNLSLLDKIYEVPGMRWAGNANELNAAYAADGYARLKGMACVITTFGVGELSALNGIAGSYAEHVGVLHVVGVPSISSQAKQLLLHHTLGNGDFTVFHRMSSNISETTAMITDINSAPSEIDRCIRTTYISQRPVYLGLPANLVDLKVPASLLETPIDLSLKPNDPEAENEVLETVLELIKDAKNPVILADACCSRHNVKAETKKLIDITQFPAFVTPMGKGSIDEQHPRFGGVYVGTLSSPEVKEAVESADLVLSVGALLSDFNTGSFSYSYKTKNIVEFHSDYIKVRNATFPGVQMKFVLQKLLTKVKDAAKGYKPVPVPHAPRDNKPVADSTPLKQEWVWTQVGKFLQEGDVVLTETGTSAFGINQTHFPNDTYGISQVLWGSIGFTGGATLGAAFAAEEIDPKKRVILFIGDGSLQLTVQEISTMIRWGLKPYLFVLNNDGYTIERLIHGETAQYNCIQSWKHLDLLPTFGAKDYEAVRVATTGEWNKLTTDKKFQENSKIRLIEVMLPVMDAPSNLVKQAQLTASINAKQE
notes: full-length ORF from genomic DNA, TDH3 promoter multi-copy plasmid in Pdc-deficient S. cerevisiae SOS5; no tag mentioned; ORF ends NAKQE by primer
On to B4, for which the Km in data set [2] was 7.7 mM.
